Assay: yeast display, Sf9 membrane polyspecificity reagent, FACS + sequencing; frameworks hold sequencing errors
Outline: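 A synthetic nanobody library was expressed on Saccharomyces cerevisiae BJ5465 by galactose induction for 36–48 hours. The library was stained for 1 hour at 4 °C with 10% biotinylated, detergent-solubilized Sf9 membrane reagent and enriched with streptavidin microbeads before FACS. Low and high (top ~1%) gates were set on anti-HA fluorescence for expression and streptavidin fluorescence for reagent binding, and each polyreactivity label reflects the gate of origin.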

Row | Sequence | polyreactivity (PSR sort gate)
1 | QVQLVESGGGLVQAGGSLRLSCAASGSTFYHNVMGWYRQAPGKERELVASIDTGDSTNYADSVKGRFTISRDNAKNTVYLQMNSLITEHTAVYYCNADSYPALNKRGYEYWGQGTQVTVSS | low polyreactivity
2 | QVQLVESGGGLVQAGGSLRLSCAASGIIFVFYVMGWYRQAPGKERELVAAISGGGSTYYADSVKGRFTISRDNAKNTVYLQMNSLKPEDTAVYYCNADYDGGYYGDLSLYDYWGQGTQVTVSS | low polyreactivity
3 | QVQLVESGGGLVQAGGSLRLSCAASGSTFRRNAMGWYRQAPGKERELVARISYRGGSTYYADSVKGRFTISRDNAKNTVYLQMNSLKPEDTAVYYCAARVYGVPEYDYWGQGTQVTVSS | low polyreactivity
4 | QVQLVESGGGLVQAGGSLRLSCAASGFTFQYYAMGWYRQAPGKERELVAVISRSGGRTYYADSVKGRFTISRDNGKNTVYLQMISLKPEDTAVYYCNAQSYIPTTETYDYWGQGTQVTVSS | high polyreactivity
5 | QVQLVESGGGLVQARRSLRLSCAASGSTFVGNTMGWYRQAPGTERELVAAISRRGGGTNYADSVKGRFTISRDNAKNTVYLQMNSLKPEDTAVYYCAAKLVYPGKFNYWGQGTQVTVSS | high polyreactivity
6 | QVQLVESGGGLVQGGGSLRLSCAASGITFGDYAMGWYRQAPGKERELVAGINWSGDGTYYADSVKGRFTISRDNAQNTDYLQLNSLKPEDTAVYNCAAETFYDYGGYDYWGQGTQVTVSS | low polyreactivity
7 | QVQLVESGGGLVQAGGSLRLSCAASGSIFDSKAMGWFRQGPGKERELVAAINRSDASTYYADSVKGRFTISRDNAKNTVYLQMNSLKPEDTAVYYCAVEVYVYNVDIYDYWGQGTQVTVSS | low polyreactivity
8 | QVQLVESGGGLVQAGGSLRLSCAASGFIFFVNAMGWYRQAPGKEREFVATITGSGGSKYYADSVKGRFTISRDIAKNTVYLQMISLKPEDTAVYYCNAETYIVLRGKFPVEYDYWGQGTQVTVSS | low polyreactivity
9 | QVQLVESGGGVVQAGGSLRLSCAASGSTFSYNAMGWYRQAPGKERELVAAITSTGRTYYADSVKGRFTISRDNAKNTVYLQMNSLKPEDTAVYYCNKRARSEQYSYNYGYYYWGQGTQVTVSS | high polyreactivity
10 | QVQLVESGGGLVQAGGSLRLSCAASGFTFDPYAMGWYRQAPGKERELVAAISFSGGSTSYADSVKGRFTISRDNAKNTVYLHMNSLKLEDTAVYYCNAEYDWWSYWYDYWGQGTQVTVSS | high polyreactivity
11 | QVQLVESGGGLVQAGGSIRLSCAASVSIQTRNAMGWYRQAPGKERELVAAISRGGSTTYADSVKGRFTISRDNAKNTVYLQMNSLKPEDTAVYYCAASDYYVLSRRTRMDYWGQGTQVTVAS | high polyreactivity
12 | QVQLVESGGGLVQAGGSLRLSCAASGRTFWFYAMGWYRQAPGKERELVATINYRGGTTYYADSVKGRFTISRDNAKNTVYLQMNSLKPEDTAVYYCAVRPTRTFIYVYWGQGTEVTVSS | high polyreactivity
13 | QVQLVDSGGGLVQAGGSLRLSCAASGRTFYYNTMGWYRQAPGKERELVAAITYRGGRTYYADSVKGRFTISRDNAKNTVYLQMNSLKPEDTAVYYCAADWRGPGRTYKINKYDYWGQGTQVTVSS | high polyreactivity
14 | QVQLVESGGGLVQAGGSLRLSCAPSGRIFFHYAMGWYRQAPGKERELVAAISRRGGNTYYADSVKGRFTISRDNAKNTVYLQMNRLKPEDTAVYYCAAQYRVGYDYWGQGTQVTVSS | high polyreactivity
15 | QVQLQESSGGLVQAGGSLRMSCAASGTIFNFHIMGWYRQAPGKEREFVAAISYGTSTYYADSVKGRFTISRDNAKNTVYLQMNSQKPEDTAVYYCAVFDYLEVYCWYWGQGTQVTVSS | low polyreactivity
16 | QVQLVESGGGLVQAGGSLRLSCAASGFTFKYNVMGWYRQAPGKERELVAAISKRGGNTYYADSVKGRFTISRDNAKNTVYLQMNSLKPEDTAVYYCAADPTSPETSGQGYDYWGQGTQVTVSS | high polyreactivity
17 | QVQLVESGGGLVQAGGSLRLSCAATGRIFVNAMGWYRQAPGKERELVAAINTRGGSTYYADSVKGRFTISRDNAKNSVYLQMNSLKPEDTAVYYCAARFYTSSRYNYWGQGTQVTVSS | high polyreactivity
18 | QVQLVESGAGLVQAGGSLRLSCAASGRTFYNNAMGWYRQAPGKERELVAAISQRTGRTYYADSVKGRFTISRDNAKNTVYLQMNSLKPEDTAVYYCAARTLSYEYNYWGQGTQVTVSS | high polyreactivity
19 | QVQLVESGGGLVQAGGSLRLSCAASGSIFVQYAMGWYRQAPGKERELVAAISRGGGRTYYADSVKGRFTISRDNANNTVYLQMNSLKPEDTAVYYCAADSRPRDDYWGQGTQVTVSS | high polyreactivity
20 | QVQLVESGGGLVQAGGSLRLSCAASGSTFVYYGMGWYRQAPGKERELVAAITDIGDSTNYADSVKGRFTISRDNAKNTVYLQMNSLKPEDTAVYYCAASGRSVPYYGSPRNDYWGQGTQVTVSS | low polyreactivity
21 | QVHLVESGGGLVQAGRTLRLICAASGFIFWRNTMGWYRQAPGKERELVAVITRGGSTYYADSVKGRFTLSRDNAKNTGYLQMNSLKPEDTAVYYCAARNDYYKTFSGYDYWGQGTQVTVSS | low polyreactivity
22 | QVQLVESGGGLVQAGGSLRLSCAASGIIFYRYAMGWYRQAPGKERELVARITSSTGSTYYADSVKGRFTISRDNAKNTVYLQMNSLKPEDTAVYYCNARRQRNKSYNYWGQGTQVTVSS | high polyreactivity

Row | Sequence | polyreactivity (PSR sort gate)
23 | QVQLVESGGGLVQAGGSLRLSCAASGFIFYYYAMGWYRPAPGKERELVAAISGSGGSTYYADSVKGRFTISRDNAKNTGYLQMNSMNPEDTAVYYCAAVQAAGSHAYDYWGQGTQVTVSS | high polyreactivity
24 | QVQLEESGGGLVQAGGSLRVSCAASGRTSEIYTLGGYRTAPGKERELVASINTNYADSGKGRFTISRDIAKNTVYLQLISLKPDDTAVYYCNADDTIEFNYWGQGTQVTVSW | low polyreactivity
25 | QDQLVESGGGLVQAGGSLRLSCAASGSTVYFNAMGWYRPAPGKERELVASITSGGSTNYADSVKGRFTISRDNAKNTVYLQMNCLKPEDTAVYYCAAGLYLQGPLDYWGQGTQVTVSS | low polyreactivity
26 | QVQLVESGGGLVQAGGSLRLSCAASGRTFYFNAMGWYRPAPGKERELVAAITSGVRTKYADSVKGRFTISRDNAKNTVYLQMNSLKPEDTAVYYCAAGGYPSRYAPWMEYWGQGTQVTVSS | high polyreactivity
27 | QVQLVESGGGLVQAGGSLRLSCAASGRTFGYYARGWYRQAPGKERELVADISSGGSTSYADSVKGRFTISRDNAKNTVYLQMNSLKPEDTAVYYCAADSHQNFSGWLRWPRMDYWGQGSQVTVSS | low polyreactivity
28 | QVQLVESGGGLVQAGGSLRLSCAASGYIFFRYAMGWYRQAPGKERELVAAINSSGDSTYADSVKGRFTISRDNAKNTVYLQMNSLKPEDTAVYYCNKDAPLFHDIIIDMDYWGQGTQVTVSS | low polyreactivity
29 | QVQLQESGGGLMQAGGSLRLSCAASGNIFLGHTKGWYRQAPGNEREFVAGIARGGNPYNADSVKGRFTISRNNAKNTVYLQKNSLKAEDTAVHYCGVQRSHASDYNYWGQGTQVTVSS | low polyreactivity
30 | QVQLVESGGGLVQEGGSLRLSCAASGRTFYRNAMGWYRQAPGKERELVAAISSDDSTNYADSVKGRFTISRDNAKNTVYLQMNSLKPEDTAVYYCNADYYYGYEYDYWGQGSQVTVSS | low polyreactivity
31 | QVQLVESGGGLVQAGGSLRLSCAASGSIFRYNTMGWYRPAPGKERELVATITRRGGSTYYADSVKGRFTISRDNAKNTVYLQMNSLKPEDTAVYYCIADNFGGPYNYWGQGTQVTVSS | low polyreactivity
32 | QVQLVESGGGLVQAGGSLRLSCAASGRIFAGYAMGWYRQAPGKERELVATITRGGSTNYADSVKRPFTISRDNAKNTVYLQMNSLKPDDTAVYYCNADIRRHGGYAHEYWGQGTQVTVSS | low polyreactivity
33 | QVQLVESGGGLVQAGGSLRLSCAASGRIIYWYAMGWYRQAPGKERELVAAIDWSAASTYYADSVKGRFTISRDNAKNTVYLQMNSLKPEDTAVYYCNRRGRGGESYRTTPGALGYWGQGTQVTVSS | low polyreactivity
34 | QVQLVESGGGLVQAGGSLRLSCAASGRTFKYYTMGWYRQAPGKERELVAGINGGGGSTYYADSVKGRFTISRDNAKNTVYLQMNSMKPEDTAVYYCAVDPFAYFSYWTYDYWGQGTQVTVSS | high polyreactivity
35 | QVQLVESGGGLVQAGGSLRLSCAASGSNFGYYTLGWYRQAPGKERELVAAIRYGDGSTNYADSVKGRFTISRDNAKNTVYLKMNSLKPEDTAVYYCATRSQRGYRGYNYWGQGTQVTLSS | high polyreactivity
36 | QVQLVESGGGLVQAGGILRLSCAASGSIFPYYAMGWYRQAPGKERELVAGITSGTRTNYADSVKGRFTISRDNAKNTVYLQMNSLKPEDTAVYYCAKEAHIWGYPDYEYWGQGSQVTVSS | high polyreactivity
37 | QVQLVESGGRLVQAGGSLRLSCAASGRTFYIYAMGWYRQAPGKERELVADISWSGGSTYYADSVKGRFTISRDNAKNTVYLQMNSLKPEDTAVYYCAADLYVYPNWYLYYYWGQGTQVTVSS | high polyreactivity
38 | QVQLVESGGGLVQAGGSLRLSCAASGRTFALNAMGWYRQAPGKERELVAAISWSSGRTYYADSVKGRFTISRDNAKNKVYLQMNSLKPEDTAVYYCAALVAHKGDYWGQGTQVTVSS | high polyreactivity
39 | QVQLVESGGGLVQAGGSLRLSCAASGRILYPYAMGWYRQAPGKERELVASISWSGGRTYYADSVKGRFTISRDHAKYTVYLQMNSLKPEDTAVYYCAATFSYSSYIYDYWGQGTQVTVSS | high polyreactivity
40 | QVQLVESGGGLVQAGGSLRLSCAASGSTFVFYTMGWYRQAPGKEREFVASISGSGGSTYYADSVKGRFTISRDNAKNTVYLQMNSLKPEDTAVYYCAAGYPYYYWTPYYYWVQGTQVTVSS | high polyreactivity
41 | QVQLVESGGGLVQAGGSLRLSCAASGSTFTYYAMGWYSQAPGKERELVARIRASGGSTYYADSVKGRFTISRDTAKNTDYLQMNSLKPEDTAVYYCAAQLYFLYRTYDYWGQGTQVTVSS | high polyreactivity
42 | QVQLVESGGGLVQAGGSLRLSCSASGSIFAYYAMGWYRQAPGKERELVAAISKSAGSTYYADSVKGRFTISRDNAKNTVYLQMNSLKPEDTAVYYCAAVVLGRRLGFRGDYNYWGQGTQVTVSS | high polyreactivity
43 | QVQLVESGGGLVQAGGSLRLSCAASGFIFYYNAMGWYRHAPGKERELDAGISRSAGSTYYADSVKGRFTISRDNAKNSVYLHMNSLTPEDTAVYYCAARYLSYITGTSYYWGQVTQVTVSS | low polyreactivity

Reference: the nanobody polyreactivity screen of Harvey et al. (2022)
